Each block holds one molecule with its values, some of them ahead of it.
Legend:
[1] = target: Thermococcus kodakaraensis Gins51ΔC (Met1-Arg130) (Thermococcus kodakaraensis); experiment: SEC; Superdex 200 PC 3.2/30 on a SMART system; 50 mM Tris-HCl pH 8.0, 0.15 M NaCl, 7 mM β-mercaptoethanol, 0.1 mM EDTA; 20 μl of each protein at 20 μM; fractions on SDS-PAGE
[2] = target: the molecule itself; experiment: as above
[3] = target: the molecule itself; experiment: SEC + other: electron microscopy; data not shown (Ogino et al.)

stoichiometry N [1]: 2
Molecule: Thermococcus kodakaraensis Gins51ΔC (Met1-Arg130) (domain or fragment)

B1: Thermococcus kodakaraensis Gins23 (natural protein, UniProt Q5JIT2 1-164, looked up)
chain: MFTGKALIAVKVMKPFGDWKSGDIVLVEDWKARELWEAGVVEIVDETDKIIGEIDKVIAEERESEPLTLLPEGLYERAEFYAYYLENYVRLNPRESVDTINVKLTKLANLRKKLRDLKLIRFNKILKAVMLRPNSLELLSRLAPEERRIYLQMSKIRNEWLGDA
notes: Gins23 subunit of the GINS complex of Thermococcus kodakaraensis; gins23 gene cloned into modified pET28 (thrombin site replaced by a TEV protease site); 94 to 100 and 132 to 133 missing); The final atomic model holds seven amino acids derived from the N-terminal tag; also called TkoGins23; BA-type subunit of TkoGINS; source: E. coli codonPlus (DE3)-RIL, co-expressed with Gins51, purified (heat …
stoichiometry N [2]: 2

B2: Thermococcus kodakaraensis Gins51 (natural protein, UniProt Q5JF31 1-188, looked up)
chain: MDIVKLRELLEAELSSTDLNELDEDFYVEFDSLIKALKLSAESSRERGEDVEERLYLAQLKIAESLMKEIIKLRLHKIVDLAVEGKIAEMTAEEKRLFNVIRAFIEREELPEISEEVQPQEESEAEAEYRSKEVPKEAYIIQIDLPAVLGPDMKEYGPFMAGDMAIIPTVIGRALVEREAARRVRIFL
notes: Gins51 subunit of the GINS complex of Thermococcus kodakaraensis; gins51 gene cloned into pET21a; also called TkoGins51; AB-type subunit of TkoGINS; source: E. coli codonPlus (DE3)-RIL, co-expressed with Gins23, purified (heat 80°C, HiTrap Phenyl, hydroxyapatite, HiTrap Q)
stoichiometry N [2]: 2

B3: Thermoplasma acidophilum GINS subunit (TacGins) (natural protein, UniProt Q9HJC8 1-233, looked up)
chain: MKPADIDKLISEIRTAIYAEQSHRKIIEIDPDIYRKVRAALSDLQAEASEYFQKQDIENYLTMNNRFQTLKRDFRSLFQRRFEKIVAKAIYDISGETLSLLTDEEKEFIEKIHNIITEEFESFIPKREEKNEARAEAQPAPADESPTAIADQKPQEEPQVVQDQHQPPAEIPSENIEIKKEDGRYVLVMITEDLPPIAQLDRNYSLHSNDLVYLPQDLASILAKRKVALVLDQ
notes: TacGins, conserved hypothetical protein of Thermoplasma acidophilum, gene Ta1042 cloned into pET21a; the homology model counts residues 1 to 233; also called Ta1042; source: E. coli BL21 codonPlus (DE3)-RIL, purified (heat 60°C, polyethyleneimine, HiTrap Phenyl, HiTrap Q)
stoichiometry N [3]: 4
